Reference: patent publication US20200079833A1 (AstraZeneca / MedImmune, published 2020)
Starred links: 1 amine or outer side, 2 acyl side, 3 side chain; linkers in the order of their positions; H or OH if unused. Non-standard residues stand in square brackets, D forms with d. Groups on a side chain read outwards from the residue. No end group written: not given here. *: point of attachment. γGlu = O=C(O)[C@H](CCC(=O)[*:2])N[*:1]; αMeF = C[C@](N)(Cc1ccccc1)C(=O)O; αMeK = C[C@](N)(CCCCN)C(=O)O; Lauroyl = CCCCCCCCCCCC(=O)*; αMeS = C[C@](N)(CO)C(=O)O; Aib = CC(C)(N)C(=O)O; Ahx = NCCCCCC(=O)O

T1: glucose-dependent insulinotropic peptide (gastric inhibitory polypeptide) receptor (GIPR) (human, UniProt P48546 22-466)
T1 sequence (looked up): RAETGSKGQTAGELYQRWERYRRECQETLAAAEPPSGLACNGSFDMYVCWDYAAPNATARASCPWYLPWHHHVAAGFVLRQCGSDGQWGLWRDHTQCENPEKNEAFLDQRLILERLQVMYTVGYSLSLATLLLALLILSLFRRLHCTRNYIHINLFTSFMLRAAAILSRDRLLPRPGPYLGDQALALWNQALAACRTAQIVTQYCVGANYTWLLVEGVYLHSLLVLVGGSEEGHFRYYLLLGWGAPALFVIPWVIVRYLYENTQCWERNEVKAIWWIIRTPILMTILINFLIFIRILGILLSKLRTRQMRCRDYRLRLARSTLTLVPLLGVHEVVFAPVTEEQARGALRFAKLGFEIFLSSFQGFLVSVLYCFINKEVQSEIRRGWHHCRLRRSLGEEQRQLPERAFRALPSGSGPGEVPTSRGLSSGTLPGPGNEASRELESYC


Legend:
Assay in all cases: cell-based or functional assay
[1] = molecular target: glucagon receptor (GCGR) (human, UniProt P47871 26-477)
[2] = molecular target: T1, glucose-dependent insulinotropic …
[3] = molecular target: GLP-1 receptor (GLP-1R) (human, UniProt P43220 24-463)

glucagon receptor (GCGR), sequence (P47871 26-477): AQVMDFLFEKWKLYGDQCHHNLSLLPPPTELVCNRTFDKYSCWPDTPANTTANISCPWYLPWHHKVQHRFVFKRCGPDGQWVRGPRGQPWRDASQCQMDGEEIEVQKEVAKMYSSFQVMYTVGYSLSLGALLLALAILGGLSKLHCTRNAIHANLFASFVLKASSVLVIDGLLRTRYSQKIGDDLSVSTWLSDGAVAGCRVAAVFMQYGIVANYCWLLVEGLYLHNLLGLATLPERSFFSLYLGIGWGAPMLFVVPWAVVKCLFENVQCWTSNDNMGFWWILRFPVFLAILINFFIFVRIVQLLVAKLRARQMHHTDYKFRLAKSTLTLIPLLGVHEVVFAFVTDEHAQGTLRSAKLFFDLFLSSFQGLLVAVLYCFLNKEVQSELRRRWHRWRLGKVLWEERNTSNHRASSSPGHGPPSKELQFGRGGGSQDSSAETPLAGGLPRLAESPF

Row | cAMP Primary assay EC50 Gluc-R [1] [nM] | cAMP Primary assay EC50 Gluc-R (2nd) [1] [nM] | cAMP Primary assay EC50 GIP-R [2] [nM] | cAMP Primary assay EC50 GIP-R (2nd) [2] [nM] | cAMP Mean pM GLP-1R [3] [pM] | cAMP Primary assay EC50 GLP-1R n1 [3] [nM] | cAMP Primary assay EC50 GLP-1R n2 [3] [nM] | Binder
1 | 29 | 29 | 29 | 29 | 11.7 | 0.014 | 0.0099 | H[Aib]EGS[αMeF]TSDV[αMeS]S[αMeF]LEGEAAK([Ahx-Lauroyl])E[αMeF]IA[αMeF]VV[αMeK]GG-NH2 (N-terminus assumed; SMILES CCCCCCCCCCCC(=O)NCCCCCC(=O)NCCCC[C@H](NC(=O)[C@H](C)NC(=O)[C@H](C)NC(=O)[C@H](CCC(=O)O)NC(=O)CNC(=O)[C@H](CCC(=O)O)NC(=O)[C@H](CC(C)C)NC(=O)[C@](C)(Cc1ccccc1)NC(=O)[C@H](CO)NC(=O)[C@](C)(CO)NC(=O)[C@@H](NC(=O)[C@H](CC(=O)O)NC(=O)[C@H](CO)NC(=O)[C@@H](NC(=O)[C@](C)(Cc1ccccc1)NC(=O)[C@H](CO)NC(=O)CNC(=O)[C@H](CCC(=O)O)NC(=O)C(C)(C)NC(=O)[C@@H](N)Cc1c[nH]cn1)[C@@H](C)O)C(C)C)C(=O)N[C@@H](CCC(=O)O)C(=O)N[C@@](C)(Cc1ccccc1)C(=O)N[C@H](C(=O)N[C@@H](C)C(=O)N[C@@](C)(Cc1ccccc1)C(=O)N[C@H](C(=O)N[C@H](C(=O)N[C@@](C)(CCCCN)C(=O)NCC(=O)NCC(N)=O)C(C)C)C(C)C)[C@@H](C)CC) [SEQ ID NO 131]
2 | 28 | 28 | 28 | 28 | 9 | 0.011 | 0.0071 | H[Aib]EGS[αMeF]TSDV[αMeS]S[αMeF]LEGEAAK([Ahx-Ahx-Lauroyl])E[αMeF]IA[αMeF]VV[αMeK]GG-NH2 (N-terminus assumed; SMILES CCCCCCCCCCCC(=O)NCCCCCC(=O)NCCCCCC(=O)NCCCC[C@H](NC(=O)[C@H](C)NC(=O)[C@H](C)NC(=O)[C@H](CCC(=O)O)NC(=O)CNC(=O)[C@H](CCC(=O)O)NC(=O)[C@H](CC(C)C)NC(=O)[C@](C)(Cc1ccccc1)NC(=O)[C@H](CO)NC(=O)[C@](C)(CO)NC(=O)[C@@H](NC(=O)[C@H](CC(=O)O)NC(=O)[C@H](CO)NC(=O)[C@@H](NC(=O)[C@](C)(Cc1ccccc1)NC(=O)[C@H](CO)NC(=O)CNC(=O)[C@H](CCC(=O)O)NC(=O)C(C)(C)NC(=O)[C@@H](N)Cc1c[nH]cn1)[C@@H](C)O)C(C)C)C(=O)N[C@@H](CCC(=O)O)C(=O)N[C@@](C)(Cc1ccccc1)C(=O)N[C@H](C(=O)N[C@@H](C)C(=O)N[C@@](C)(Cc1ccccc1)C(=O)N[C@H](C(=O)N[C@H](C(=O)N[C@@](C)(CCCCN)C(=O)NCC(=O)NCC(N)=O)C(C)C)C(C)C)[C@@H](C)CC) [SEQ ID NO 132]

The remaining lines, values behind:

Row | Binder | cAMP Primary assay EC50 Gluc-R [1] [nM] | cAMP Primary assay EC50 Gluc-R (2nd) [1] [nM] | cAMP Primary assay EC50 GIP-R [2] [nM] | cAMP Primary assay EC50 GIP-R (2nd) [2] [nM] | cAMP Mean pM GLP-1R [3] [pM] | cAMP Primary assay EC50 GLP-1R n1 [3] [nM] | cAMP Primary assay EC50 GLP-1R n2 [3] [nM]
3 | H[Aib]EGS[αMeF]TSDV[αMeS]S[αMeF]LEGEAAK([γGlu-Lauroyl])E[αMeF]IA[αMeF]VV[αMeK]GG-NH2 (N-terminus assumed; SMILES CCCCCCCCCCCC(=O)N[C@@H](CCC(=O)NCCCC[C@H](NC(=O)[C@H](C)NC(=O)[C@H](C)NC(=O)[C@H](CCC(=O)O)NC(=O)CNC(=O)[C@H](CCC(=O)O)NC(=O)[C@H](CC(C)C)NC(=O)[C@](C)(Cc1ccccc1)NC(=O)[C@H](CO)NC(=O)[C@](C)(CO)NC(=O)[C@@H](NC(=O)[C@H](CC(=O)O)NC(=O)[C@H](CO)NC(=O)[C@@H](NC(=O)[C@](C)(Cc1ccccc1)NC(=O)[C@H](CO)NC(=O)CNC(=O)[C@H](CCC(=O)O)NC(=O)C(C)(C)NC(=O)[C@@H](N)Cc1c[nH]cn1)[C@@H](C)O)C(C)C)C(=O)N[C@@H](CCC(=O)O)C(=O)N[C@@](C)(Cc1ccccc1)C(=O)N[C@H](C(=O)N[C@@H](C)C(=O)N[C@@](C)(Cc1ccccc1)C(=O)N[C@H](C(=O)N[C@H](C(=O)N[C@@](C)(CCCCN)C(=O)NCC(=O)NCC(N)=O)C(C)C)C(C)C)[C@@H](C)CC)C(=O)O) [SEQ ID NO 128] | 28 | 28 | 28 | 28 | 18.2 | 0.015 | 0.021
4 | H[Aib]EGS[αMeF]TSDV[αMeS]S[αMeF]LEGEAAK([γGlu-γGlu-γGlu-Lauroyl])E[αMeF]IA[αMeF]VV[αMeK]GG-NH2 (N-terminus assumed; SMILES CCCCCCCCCCCC(=O)N[C@@H](CCC(=O)N[C@@H](CCC(=O)N[C@@H](CCC(=O)NCCCC[C@H](NC(=O)[C@H](C)NC(=O)[C@H](C)NC(=O)[C@H](CCC(=O)O)NC(=O)CNC(=O)[C@H](CCC(=O)O)NC(=O)[C@H](CC(C)C)NC(=O)[C@](C)(Cc1ccccc1)NC(=O)[C@H](CO)NC(=O)[C@](C)(CO)NC(=O)[C@@H](NC(=O)[C@H](CC(=O)O)NC(=O)[C@H](CO)NC(=O)[C@@H](NC(=O)[C@](C)(Cc1ccccc1)NC(=O)[C@H](CO)NC(=O)CNC(=O)[C@H](CCC(=O)O)NC(=O)C(C)(C)NC(=O)[C@@H](N)Cc1c[nH]cn1)[C@@H](C)O)C(C)C)C(=O)N[C@@H](CCC(=O)O)C(=O)N[C@@](C)(Cc1ccccc1)C(=O)N[C@H](C(=O)N[C@@H](C)C(=O)N[C@@](C)(Cc1ccccc1)C(=O)N[C@H](C(=O)N[C@H](C(=O)N[C@@](C)(CCCCN)C(=O)NCC(=O)NCC(N)=O)C(C)C)C(C)C)[C@@H](C)CC)C(=O)O)C(=O)O)C(=O)O) [SEQ ID NO 130] | 26 | 26 | 26 | 26 | 14.4 | 0.016 | 0.013
5 | H[Aib]EGS[αMeF]TSDV[αMeS]S[αMeF]LEGEAAK([γGlu-γGlu-Lauroyl])E[αMeF]IA[αMeF]VV[αMeK]GG-NH2 (N-terminus assumed; SMILES CCCCCCCCCCCC(=O)N[C@@H](CCC(=O)N[C@@H](CCC(=O)NCCCC[C@H](NC(=O)[C@H](C)NC(=O)[C@H](C)NC(=O)[C@H](CCC(=O)O)NC(=O)CNC(=O)[C@H](CCC(=O)O)NC(=O)[C@H](CC(C)C)NC(=O)[C@](C)(Cc1ccccc1)NC(=O)[C@H](CO)NC(=O)[C@](C)(CO)NC(=O)[C@@H](NC(=O)[C@H](CC(=O)O)NC(=O)[C@H](CO)NC(=O)[C@@H](NC(=O)[C@](C)(Cc1ccccc1)NC(=O)[C@H](CO)NC(=O)CNC(=O)[C@H](CCC(=O)O)NC(=O)C(C)(C)NC(=O)[C@@H](N)Cc1c[nH]cn1)[C@@H](C)O)C(C)C)C(=O)N[C@@H](CCC(=O)O)C(=O)N[C@@](C)(Cc1ccccc1)C(=O)N[C@H](C(=O)N[C@@H](C)C(=O)N[C@@](C)(Cc1ccccc1)C(=O)N[C@H](C(=O)N[C@H](C(=O)N[C@@](C)(CCCCN)C(=O)NCC(=O)NCC(N)=O)C(C)C)C(C)C)[C@@H](C)CC)C(=O)O)C(=O)O) [SEQ ID NO 129] | 27 | 27 | 27 | 27 | 11.5 | 0.012 | 0.011
